Legend:
[1] = molecular target: T1, extracellular domain of hCD4 fused with human Fc tag (hCD4-hFc) (human, UniProt P01730 26-396); test: ELISA, purified hybridoma antibody on coated CD4-hFc
T1 construct: extracellular domain; also called human CD4-hFc; hCD4 (ELISA); not shown: human Fc tag
Method: (§1) Example 2: Selection of the Anti-hCD4 Hybridoma Antibodies Based on Binding and Gene Reporter Assays The binding interaction between hybridoma antibody and human CD4-hFc was measured by ELISA. 96-well plates (Costar, Cat. No:9018) were coated with 100 μL of 2 μg/ml CD4-hFc (CrownBio) in PBS buffer (Hyclone, Cat. No: SH30256.01B) overnight at 4° C. The wells were aspirated and non-specific binding sites were blocked by adding 200 μL of blocking buffer containing 1% (w/v) of bovine serum albumin (BSA, Roche, Cat. No: 738328) and incubating for 1 hour at 37° C. After the plates are washed three times with PBS buffer containing 0.05% (v/v) Tween™ 20 (Sigma, Cat. No: P1379), 100 μL hybridoma supernatant or a serial concentrations of purified antibody (starting from 20 μg/mL) diluted in blocking buffer was added to each well and incubated at room temperature for 1 hour. The plates were washed and incubated with 100 μL/well of Goat anti-Mouse IgG (Thermo, Cat. No:31432) in blocking buffer for 60 min. After the plates were washed, 100 μL/well of substrate solution TMB (eBioscience, Cat. No:00-4201-56) was added, and the plates were incubated for 2 min at room temperature before 100 μL/well of 2N H_2SO_4 was added to stop the reaction. The colorimetric signals were monitored at 450 nm using a SpectraMax Plus microplate reader (Molecular Devices). For the purified antibody, data were analyzed using GraphPad Prism 5 to calculated the $EC50$.

[2] = molecular target: T2, human CD4 on 293T cells stably expressing CD4 (CD4-293T) (human, UniProt P01730 26-458); test: FACS, chimeric antibody on CD4-293T cells
T2 construct: whole, on cells; also called 293T-CD4 cells; hCD4 (FACS)
Method: (§2) Cell binding analysis of anti-CD4 antibody was performed using 293T cell line stably expressing CD4 (CD4-293T). 2*10^5 CD4-293T cells were added to each well of 96-well plate and incubated with the indicated hybridoma supernatant or a serial concentrations of purified antibody (starting from 20 μg/mL) at 4° C. for 1 h. After the cells were washed three times with FACS buffer, the secondary antibody (PE Goat anti-mouse: 1:200) was added to the cells at 100 μl/well, and incubated at 4° C. for 40 min. Cells were washed three times with FACS buffer and analyzed by FACS Array. The binding EC50 of purified antibody was calculated with GraphPad Prism 5.
(§3) Freestyle 293 cells (200 mL at 1*10^6/mL) were transfected with 100 µg of each of the chimeric heavy and light chain expression plasmids and cultured for 6 days at 37° C. The chimeric antibody in the supernatant was then purified with Protein-A column (GE healthcare). Binding of the chimeric antibody with CD4 was measured by ELISA (FIG. 3, Table 5) and FACS (FIG. 4, Table 6), using the similar methods described above in Example 2.

[3] = molecular target: T1, extracellular domain of hCD4 fused with …; test: ELISA, chimeric antibody on hCD4, method similar to Example 2
Method: as §1, §3

[4] = molecular target: T3, extracellular domain of hCD4 fused with a histidine tag (hCD4-HisTag) (human, UniProt P01730 26-396); test: Biacore T200 SPR, antibody captured on Protein A, CD4-HisTag analyte, 1:1 fit, 25 C
T3 construct: extracellular domain; also called human CD4-HisTag; not shown: histidine tag
Method: The binding kinetics between CD4 and CD4 antibodies were measured by Biacore™ analysis, which was performed at 25° C. on a Biacore™ T200 instrument. Protein A (GE, Cat. No:29139131-AA) was diluted with 10 mM pH 5.0 sodium acetate and immobilized onto reference and experiment flow cells of a CM5 biosensor chip to around 15000 RU using an amine coupling kit (GE, BR10050). In the beginning of each cycle, diluted test antibody (1.5 µg/mL) was injected over experiment flow cell for 1 minute to be captured. CD4-HisTag analyte series were prepared by diluting the stocks with running buffer to 100 nM followed by 2-fold serial dilution in the same buffer down to 0.78 nM. Analytes were injected in series over the reference and experiment flow cells for 3 minutes at a flow rate of 30
μL/minute. Running buffer (PBS with 0.05% P20) was allowed to flow over for 10 minutes at a flow rate of 30 μL/minute. At the end of each cycle, the biosensor surface was regenerated with 3-minute injection of 10 mM pH 2.0 Glycine-HCl buffer at a flow rate of 10 μL/minute. For each analyte sample injection (i.e., each cycle), binding responses obtained from the experimental biosensor surface were double referenced by subtracting simultaneously recorded responses from the reference surface followed by additional subtraction of responses from a single referenced running buffer sample. The association and dissociation rate constants (ka and kd) were determined simultaneously by fitting double-referenced sensorgrams of the entire titration series to Langmuir model (1:1) using Biaevaluation software. The dissociation constant, KD, was calculated from the determined rate constants by the equation KD=kd/ka.

[5] = molecular target: T2, human CD4 on 293T cells stably …; test: FACS on 293T cells expressing human CD4, MFI; table under the graph (unit from the graph's axis); Table 6 of the text gives this value to 10C2
Method: as §2, §3

[6] = molecular target: T2, human CD4 on 293T cells stably …; test: FACS on 293T cells expressing human CD4, MFI; table under the graph (unit from the graph's axis); Table 6 of the text gives this value to 2B6
Method: as §2, §3

[7] = molecular target: T2, human CD4 on 293T cells stably …; test: FACS on 293T cells expressing human CD4, MFI; table under the graph (unit from the graph's axis); Table 6 of the text gives this value to 11E12
Method: as §2, §3

[8] = molecular target: T2, human CD4 on 293T cells stably …; test: FACS on 293T cells expressing human CD4, MFI; table under the graph (unit from the graph's axis); Table 6 of the text gives this value to 29B7
Method: as §2, §3

Binder	EC50 [1] [µg/mL]	EC50 [2] [µg/mL]	EC50 [3] [µg/mL]	Kd [4] [nM]	koff [4] [s⁻¹]	kon [4] [M⁻¹ s⁻¹]	other results
10C2 murine hybridoma anti-CD4 antibody (antibody, V domains shown, also called hybridoma clone 10C2) VH: EVKLQQSGTELMKPGASVKISCKATGYTFSSYWIEWIKQRPGRGLEWIGEILPGSGSTNYNEEFTGRATFTADTFSNTAYMQLSSLTSEDSAVYYCARSVSASNWYFDVWGAGTTVTVSS VL: DIVMTQSPASLAVSLGQRATISCRASQSVSTSSYSYMHWYQQKPGQPPKFLIKYASNLESGVPARFSGSGSGTDFTLNIHPVEEEDTATYYCQHSWEIPPTFGGGTKLEIK	0.0368	–	–	–	–	–	–
29B7 murine hybridoma anti-CD4 antibody (antibody, V domains shown, also called hybridoma clone 29B7) VH: QVQLQQSGAELAKPGASVKMSCKTSADSLNTHWMHWVKQRPGQGLEWIGYINPYTGSGEYSQKFKGKATLTADISSSTAYMQLISLTSEDSAVYYCAYDSTGAMDYWGQGTSVTVSS VL: DIKMTQSPSSMYASLGERITITCKASQDINRYLSWFQQKPGKSPKTPIYRADRSVDGVPSRFSGSGSGQDYSLTISSLEYEDMGIYYCQQYDEFPYTFGGGTKLEIK	0.0334	–	–	–	–	–	–
Chimeric 2B6 anti-CD4 antibody (antibody, human IgG1, kappa, V domains shown) VH: EVQLQESGPSLVKPSQTLSLTCSVTGDSITSGYWNWIRKFPGHKLEFLGYISFADTTNYNPSLKSRVSITRDTSKNQFDLQLKSVTTEDTATYHCARDDYGYYAMDYWGQGISVTVSS VL: DIHLTQTTSSLSASLGDRVTIICRASQDIDNYLNWYQLKPDGTLKLLIYYTSRLHSGVPSRFSGSGSGTEYSLTISNLEREDVATYFCQQGNTLPTFGAGTKLELKR	–	0.669	0.0165	0.373	0.000122	327000	EC50 [7]: 0.316 µg/mL
2B6 murine hybridoma anti-CD4 antibody (antibody, V domains shown, also called hybridoma clone 2B6) VH: EVQLQESGPSLVKPSQTLSLTCSVTGDSITSGYWNWIRKFPGHKLEFLGYISFADTTNYNPSLKSRVSITRDTSKNQFDLQLKSVTTEDTATYHCARDDYGYYAMDYWGQGISVTVSS VL: DIHLTQTTSSLSASLGDRVTIICRASQDIDNYLNWYQLKPDGTLKLLIYYTSRLHSGVPSRFSGSGSGTEYSLTISNLEREDVATYFCQQGNTLPTFGAGTKLELK	0.0261	–	–	–	–	–	–
11E12 murine hybridoma anti-CD4 antibody (antibody, V domains shown, also called hybridoma clone 11E12) VH: EVQLEESGPSLVKPSQTLSLTCSVTGDSITSSYWNWIRKFPGHKLEFLGYISFADTTNYNPSLKSRISITRDTSKNQFDLQLKSVTTEDTATYYCARDDFGYYAMDYWGQGISVTVSS VL: DIYVTQTTSSLSASLGDRVTIICRASQDINNYLNWYQLKPDGTLKLLIYYTSRLHSGVPSRFGGSGSGTEYSLTISNLEQEDVATYFCQQGNTLPTFGAGTKLELK	0.027	–	–	–	–	–	–

Continued, in another order:

EC50 [1] [µg/mL]	EC50 [2] [µg/mL]	EC50 [3] [µg/mL]	Kd [4] [nM]	koff [4] [s⁻¹]	kon [4] [M⁻¹ s⁻¹]	Binder	other results
–	0.351	0.0204	4.25	0.00461	1.09e+06	Chimeric 33E12 anti-CD4 antibody (antibody, human IgG1, kappa, V domains shown) VH: DVQLQESGPGLVKPSQSLSLTCTVTGYSITSDYAWNWIRQFPGNKLEWMGYISYSGITSYNPSLKSRFSITRDTSKNQFFLQLNSVTTEDTATYYCARLDSSGYGAMDYWGQGTSVTVSS VL: DIVLTQSPASLPVSLGQRATISCRASQSVSTSSYSYMHWYQQKPGQPPKLLIRYASNLESGVPARFSGSGSGTDFTLNIHPVEEEDTATYYCQHSWDFPLTFGAGTKLELKR	EC50 [5]: 0.882 µg/mL
0.034	–	–	–	–	–	33E12 murine hybridoma anti-CD4 antibody (antibody, V domains shown, Mouse antibody purified from hybridoma supernatant on Protein A and detected with goat anti-mouse IgG; also called hybridoma clone 33E12) VH: DVQLQESGPGLVKPSQSLSLTCTVTGYSITSDYAWNWIRQFPGNKLEWMGYISYSGITSYNPSLKSRFSITRDTSKNQFFLQLNSVTTEDTATYYCARLDSSGYGAMDYWGQGTSVTVSS VL: DIVLTQSPASLPVSLGQRATISCRASQSVSTSSYSYMHWYQQKPGQPPKLLIRYASNLESGVPARFSGSGSGTDFTLNIHPVEEEDTATYYCQHSWDFPLTFGAGTKLELK	–
–	0.882	0.0179	1.19	0.00019	160000	Chimeric 10C2 anti-CD4 antibody (antibody, human IgG1, kappa, V domains shown) VH: EVKLQQSGTELMKPGASVKISCKATGYTFSSYWIEWIKQRPGRGLEWIGEILPGSGSTNYNEEFTGRATFTADTFSNTAYMQLSSLTSEDSAVYYCARSVSASNWYFDVWGAGTTVTVSS VL: DIVMTQSPASLAVSLGQRATISCRASQSVSTSSYSYMHWYQQKPGQPPKFLIKYASNLESGVPARFSGSGSGTDFTLNIHPVEEEDTATYYCQHSWEIPPTFGGGTKLEIKR	EC50 [6]: 0.669 µg/mL
–	0.515	0.0165	1.61	0.000941	586000	Chimeric MT412 anti-CD4 antibody (antibody, human IgG1, kappa, V domains shown) VH: QIQLVQSGPELKKPGETVKISCKASGYTFTDYSMHWVKQAPGKDLKWMGWINTETGEPTYADDFKGRFAFSLETSASTAYLQINNLKNEDTATYFCAREDYYGHDGFLYWGQGTLVTVSS VL: DIVMTQSHKFMSTSVGDRVSITCKASQDVVTTVAWYQQKPGQSPKLLIYWASLRHTGVPDRFTGSGSGTDFTLTISNVQFEDLADYFCQQYSSYPYTFGGGTKLEIKR	–
–	0.316	0.0168	6.26	0.00618	987000	Chimeric 11E12 anti-CD4 antibody (antibody, human IgG1, kappa, V domains shown) VH: EVQLEESGPSLVKPSQTLSLTCSVTGDSITSSYWNWIRKFPGHKLEFLGYISFADTTNYNPSLKSRISITRDTSKNQFDLQLKSVTTEDTATYYCARDDFGYYAMDYWGQGISVTVSS VL: DIYVTQTTSSLSASLGDRVTIICRASQDINNYLNWYQLKPDGTLKLLIYYTSRLHSGVPSRFGGSGSGTEYSLTISNLEQEDVATYFCQQGNTLPTFGAGTKLELKR	EC50 [8]: 0.401 µg/mL

Source: patent US11254745 (CROWN BIOSCIENCE, dated 2022)
